{"source": "paper PMC5369529", "about": "“Substrate selectivity of an isolated enoyl reductase catalytic domain from an iterative highly reducing fungal polyketide synthase reveals key components of programming” (Chemical Science, 2016)", "molecules": {"B1": {"name": "isolated enoyl reductase (ER) domain of squalestatin tetraketide synthase (SQTKS) (Phoma sp. C2932) (protein)", "chain": "GIKTPGLIDTLQFSKTDATDNLPNDYIEIEPKAFGLNFRDVMVAMGQLEESIMGFECAGVVRRVGPSSAGHNIKVGDRVCALLGGQWTNTVRVHWHSVAPIPQAMDWETAASIPIVFVTAYISLVKIARMQAGETVLIHAASGGVGQAAIILAKHVGAEIFATVGTDEKRDLLIKEYKIPDDHIFSSRNALFAKSIRQRTNGKGVDVVLNCLAGGLLQESFDCLADFGRFIEIGKRDIELNHCLNMGMFARSATFTAVDLIAIGRDRSYMFAEALPKIMTLLQEKAIRPVTPISIYKIGDIETAFRLMQAGKHMGKIVITA", "notes": "isolated ER domain only, his6-tagged, from synthetic codon-optimised phpks1, expressed in E. coli; dimer; exact borders in ESI (model begins at G1886)"}}, "key": {"[1]": {"target": "T1, isolated enoyl reductase (ER) domain of squalestatin tetraketide synthase (SQTKS) (Phoma sp. C2932, UniProt Q86ZD9)", "T1 construct": "gene pks1; isolated ER domain only, his6-tagged, from synthetic codon-optimised phpks1, expressed in E. coli; dimer; exact borders in ESI (model begins at G1886)", "T1 sequence (Q86ZD9 1887-2207 limits assumed)": "B1 chain", "assay": "inhibition of turnover of tigloyl pantetheine 5P", "format": "biochemical", "conditions": "substrate 5P, NADPH; inhibitor, not reduced"}, "[2]": {"substrate": "CCC/C=C/C(=O)SCCNC(=O)CCNC(=O)[C@H](O)C(C)(C)CO", "assay": "purified protein, by the assay type", "parameters": "continuous spectrophotometric assay, NADPH consumption at 340 nm, initial rates fitted to Michaelis-Menten", "conditions": "30.0 °C"}, "[3]": {"substrate": "CC[C@H](C)/C=C(\\C)C(=O)SCCNC(=O)CCNC(=O)[C@H](O)C(C)(C)CO", "assay": "purified protein, by the assay type", "parameters": "continuous spectrophotometric assay, NADPH consumption at 340 nm, initial rates fitted to Michaelis-Menten", "conditions": "30.0 °C"}, "[4]": {"substrate": "CCC/C=C(\\C)C(=O)SCCNC(=O)CCNC(=O)[C@H](O)C(C)(C)CO", "assay": "purified protein, by the assay type", "parameters": "continuous spectrophotometric assay, NADPH consumption at 340 nm, initial rates fitted to Michaelis-Menten", "conditions": "30.0 °C"}, "[5]": {"substrate": "CCCC/C=C/C(=O)SCCNC(=O)CCNC(=O)[C@H](O)C(C)(C)CO", "assay": "purified protein, by the assay type", "parameters": "continuous spectrophotometric assay, NADPH consumption at 340 nm, initial rates fitted to Michaelis-Menten", "conditions": "30.0 °C"}, "[6]": {"substrate": "CCC(C)CC(C)/C=C/C(=O)SCCNC(=O)CCNC(=O)[C@H](O)C(C)(C)CO", "assay": "purified protein, by the assay type", "parameters": "continuous spectrophotometric assay, NADPH consumption at 340 nm, initial rates fitted to Michaelis-Menten", "conditions": "30.0 °C"}, "[7]": {"substrate": "C/C=C(\\CC)C(=O)SCCNC(=O)CCNC(=O)[C@H](O)C(C)(C)CO", "assay": "purified protein, by the assay type", "parameters": "continuous spectrophotometric assay, NADPH consumption at 340 nm, initial rates fitted to Michaelis-Menten", "conditions": "30.0 °C"}, "[8]": {"substrate": "CCCCC/C=C/C(=O)SCCNC(=O)CCNC(=O)[C@H](O)C(C)(C)CO", "assay": "purified protein, by the assay type", "parameters": "continuous spectrophotometric assay, NADPH consumption at 340 nm, initial rates fitted to Michaelis-Menten", "conditions": "30.0 °C"}, "[9]": {"substrate": "C/C=C(/C)C(=O)SCCNC(=O)CCNC(=O)[C@H](O)C(C)(C)CO", "assay": "purified protein, by the assay type", "parameters": "continuous spectrophotometric assay, NADPH consumption at 340 nm, initial rates fitted to Michaelis-Menten", "conditions": "30.0 °C"}, "[10]": {"substrate": "CCC(C)/C=C/C(=O)SCCNC(=O)CCNC(=O)[C@H](O)C(C)(C)CO", "assay": "purified protein, by the assay type", "parameters": "continuous spectrophotometric assay, NADPH consumption at 340 nm, initial rates fitted to Michaelis-Menten", "conditions": "30.0 °C"}, "[11]": {"substrate": "CC(C)CC/C=C/C(=O)SCCNC(=O)CCNC(=O)[C@H](O)C(C)(C)CO", "assay": "purified protein, by the assay type", "parameters": "continuous spectrophotometric assay, NADPH consumption at 340 nm, initial rates fitted to Michaelis-Menten", "conditions": "30.0 °C"}, "[12]": {"substrate": "C/C=C(\\C)C(=O)SCCNC(=O)CCNC(=O)[C@H](O)C(C)(C)CO", "assay": "purified protein, by the assay type", "parameters": "continuous spectrophotometric assay, NADPH consumption at 340 nm, initial rates fitted to Michaelis-Menten", "conditions": "30.0 °C"}, "[13]": {"substrate": "CC(C)CCC/C=C/C(=O)SCCNC(=O)CCNC(=O)[C@H](O)C(C)(C)CO", "assay": "purified protein, by the assay type", "parameters": "continuous spectrophotometric assay, NADPH consumption at 340 nm, initial rates fitted to Michaelis-Menten", "conditions": "30.0 °C"}, "[14]": {"substrate": "CCC/C=C(\\CC)C(=O)SCCNC(=O)CCNC(=O)[C@H](O)C(C)(C)CO", "assay": "purified protein, by the assay type", "parameters": "continuous spectrophotometric assay, NADPH consumption at 340 nm, initial rates fitted to Michaelis-Menten", "conditions": "30.0 °C"}}, "data": [{"molecule": "CC[C@H](C)C[C@H](C)/C=C/C(=O)SCCNC(=O)CCNC(=O)[C@H](O)C(C)(C)CO", "note": "[1P, squalestatin tetraketide pantetheine]", "values": [{"measurement": "inhibition of turnover of tigloyl pantetheine 5P", "setting": "[1]", "result": "it does act as an inhibitor of the ER in vitro"}]}, {"molecule": "B1", "values": [{"measurement": "Km", "setting": "[2]", "result": 0.23, "unit": "µM"}, {"measurement": "kcat", "setting": "[2]", "result": 25.9, "unit": "s⁻¹"}, {"measurement": "kcat/Km", "setting": "[2]", "result": "1.13e+08", "unit": "M⁻¹ s⁻¹"}, {"measurement": "Km", "setting": "[3]", "result": 0.41, "unit": "µM"}, {"measurement": "kcat", "setting": "[3]", "result": 48.8, "unit": "s⁻¹"}, {"measurement": "kcat/Km", "setting": "[3]", "result": "1.19e+08", "unit": "M⁻¹ s⁻¹"}, {"measurement": "Km", "setting": "[4]", "result": 0.54, "unit": "µM"}, {"measurement": "kcat", "setting": "[4]", "result": 415, "unit": "s⁻¹"}, {"measurement": "kcat/Km", "setting": "[4]", "result": "7.68e+08", "unit": "M⁻¹ s⁻¹"}, {"measurement": "Km", "setting": "[5]", "result": 0.18, "unit": "µM"}, {"measurement": "kcat", "setting": "[5]", "result": 7.11, "unit": "s⁻¹"}, {"measurement": "kcat/Km", "setting": "[5]", "result": "3.95e+07", "unit": "M⁻¹ s⁻¹"}, {"measurement": "Km", "setting": "[6]", "result": 0.18, "unit": "µM"}, {"measurement": "kcat", "setting": "[6]", "result": 2, "unit": "s⁻¹"}, {"measurement": "kcat/Km", "setting": "[6]", "result": "1.11e+07", "unit": "M⁻¹ s⁻¹"}, {"measurement": "Km", "setting": "[7]", "result": 0.16, "unit": "µM"}, {"measurement": "kcat", "setting": "[7]", "result": 2.58, "unit": "s⁻¹"}, {"measurement": "kcat/Km", "setting": "[7]", "result": "1.61e+07", "unit": "M⁻¹ s⁻¹"}, {"measurement": "Km", "setting": "[8]", "result": 0.6, "unit": "µM"}, {"measurement": "kcat", "setting": "[8]", "result": 9, "unit": "s⁻¹"}, {"measurement": "kcat/Km", "setting": "[8]", "result": "1.5e+07", "unit": "M⁻¹ s⁻¹"}, {"measurement": "Km", "setting": "[9]", "result": 0.44, "unit": "µM"}, {"measurement": "kcat", "setting": "[9]", "result": 11.4, "unit": "s⁻¹"}, {"measurement": "kcat/Km", "setting": "[9]", "result": "2.59e+07", "unit": "M⁻¹ s⁻¹"}, {"measurement": "Km", "setting": "[10]", "result": 0.18, "unit": "µM"}, {"measurement": "kcat", "setting": "[10]", "result": 5.9, "unit": "s⁻¹"}, {"measurement": "kcat/Km", "setting": "[10]", "result": "3.28e+07", "unit": "M⁻¹ s⁻¹"}, {"measurement": "Km", "setting": "[11]", "result": 0.52, "unit": "µM"}, {"measurement": "kcat", "setting": "[11]", "result": 5.6, "unit": "s⁻¹"}, {"measurement": "kcat/Km", "setting": "[11]", "result": "1.08e+07", "unit": "M⁻¹ s⁻¹"}, {"measurement": "Km", "setting": "[12]", "result": 0.69, "unit": "µM"}, {"measurement": "kcat", "setting": "[12]", "result": 8.9, "unit": "s⁻¹"}, {"measurement": "kcat/Km", "setting": "[12]", "result": "1.29e+07", "unit": "M⁻¹ s⁻¹"}, {"measurement": "Km", "setting": "[13]", "result": 4.70, "unit": "µM"}, {"measurement": "kcat", "setting": "[13]", "result": 0.85, "unit": "s⁻¹"}, {"measurement": "kcat/Km", "setting": "[13]", "result": 200000, "unit": "M⁻¹ s⁻¹"}, {"measurement": "Km", "setting": "[14]", "result": 0.19, "unit": "µM"}, {"measurement": "kcat", "setting": "[14]", "result": 4.71, "unit": "s⁻¹"}, {"measurement": "kcat/Km", "setting": "[14]", "result": "2.48e+07", "unit": "M⁻¹ s⁻¹"}]}]}
